Measurements as given in article PMC11686404.

Biological target: native BnFMO, flavin monooxygenase from Bacillus niacini (Bacillus niacini)
Test: cryo-EM structure

stoichiometry N: 3
Substance: native BnFMO, flavin monooxygenase from Bacillus niacini (enzyme)
